Measurements published in the nanobody polyreactivity screen of Harvey et al. (2022).

Test: yeast display, Sf9 membrane polyspecificity reagent, FACS + sequencing; frameworks hold sequencing errors
In short: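 Polyreactivity labels are assigned by the sorting gate from which each nanobody was recovered. The gates were low and high (top ~1%), set on anti-HA fluorescence for expression and streptavidin fluorescence for reagent binding. Before sorting, galactose-induced (36–48 hours) yeast display cells were stained for 1 hour at 4 °C with 10% biotinylated, detergent-solubilized Sf9 membrane reagent.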

| Sequence | polyreactivity (PSR sort gate) |
| --- | --- |
| QFQLVESGGGLVQAGGSLRLSCAASGYIFLRNAMGCYRQAHGKERELVAAIRLTGGSTYYADSVKGRFTISRDNAKNTVYLQMNSLKPEDTAVYYCAKRSYTGYEYWGQGTQVTVSS | low polyreactivity |
| QVQLVESGGGLVQAGGSLRLSSPASGRIFITNAMGWYRQAPGKERELVASITVSGDSTYYADSVKGRFTISRDNAKNPVYLQMNSLKPEDTAVYYCAADYYALDKVLGNNYWGQGTQVTVSS | low polyreactivity |
| QVQLVESGGGLVQAGGSLRLSCAASGSTFGINAMGWSRQAPGKERELVAAISWRGGSTYYADSVKGRFTISRDNSKNTVYLQMNSLKPEDTAVYYCAADTFYWVGHYYVETYDYWGQGTQVTVSS | high polyreactivity |
| QVQLVESGGGLVQEGGSLRLSCAASGRIIPSYAMGWYRQAPGKERELVAAISYSGASTYYADSVKGRFTISRDNAKNTVYLLMNCLKPEDTAVYYCATDHDSVRVLVSSTSDYDYWGQGTQVTVSS | low polyreactivity |
| QVQLVESGGGLVQAGGSLRLSCAAYGRTFGRYAMGCYRPAPGKERELVAAITVGGGSKYYADSVKGRFTISRDNAKNTVYLQMNSLKPEDTAVYYCNALHTYTYRYDYYYWGQGTQVTVSS | high polyreactivity |
| QVQLVESGGGLVQAGGSLRLSCAASGRIFKYYAMGWYRQAPGKERELVAAITRGGSTNYADSVKGRFTISRDNASNTVYLQMTSLKPEDTAVYYCAVVTVRNHRMDYWGQGTQVTVSS | low polyreactivity |
| QVQLVESGGGLVQAGGSLRLSCAASGSTFYTNAMGWYRQAPGKERELVAAISASVGSTYYADSVKGRFTISRDNAKNTVYLQMNSLKPEDTAVYYCAADRGFYYEYDYWGQGTQVTVSS | low polyreactivity |
| QVQLVESGGGLVQAGGRLRLSCAASGRTFNVNVMGWYRQAPGKERELVAAIRYTGGSTYADSVKGRFTISRDNAKNTVYLQMNSLKPEDTALYYCNADTFFPFDHGMDYWGQGTQVTVSS | low polyreactivity |
| QVQLVESGGGLVQAGGSLRLSCAASGSTFDFYAMAWYRQAPGKERELVADITSGGRTSYADSVKGRFTISRDNAKNTVYLQMNSLKPEDTAVYYCAALTRWYAWYDYWGQGTQVTVSS | high polyreactivity |
| QVQLVESGGGLVQAGGRLRLSCAASGSTFWYYAMGWYRQAPGKEREFVAGISTSGVSTYYADSVKGRFTISRDNAKNTVYLQMNSLKPEDTAVYYCAADYIFRRAGWYLMDYWGQGTQVTVSS | high polyreactivity |
| QVQLVESGGGLVQAGGSLRLSSAASGFTFARYAMGWYRQAPGKERELVAAITFSGTRTYYADSVKGRFTISRDNAKNTVYLQMNSLKPEDTAVYYCAAVVQTKAYRKAVYYFSSYDYWGQGTQVTVSS | high polyreactivity |
| QVQLVESGGGFVQAGGSLRLSCAASGRIFPWNTMGWYRQATGNERELVAGITSGGSTNYADSVKGRFTISRDNAKNTVYLQMNSLKPEDTAVYNCAARGYYWYISGVYEYEYWGQGTQVTVSS | low polyreactivity |
| QVQLVESGGGLVQAGGSLRLSCAASGFTFSTNAMGWYRQAPGKERELVAAISKSGVSTYYADSVKGRFTISRDNAKNTVYLQMNSLKPEDTAVYYCAADPKIALYKVWRYDYWGQGTQVTVSS | high polyreactivity |
| QVQVVESGGGLVQAGGSLRLSCAASGSIFATYAMGWYRQAPGKERELVAAITSSDGSTNYADSVKGRFTISRDNAKNTVYLQMNSLKPEDTAVYYCATDAPDRTDSDSGFDAGYDYWGQGTQVTLSS | low polyreactivity |
| QVQLVESGGGLVQAGGSLRLSCAASGRIFHYNAMGWYRQAPRKERELVAAISTGGSTNYADSVKGRFTISRDNAKNTVYLQMNSLKPEDTAVYYCAADHPVTYPTSKFDYWGQGTQVTVSS | low polyreactivity |
| QLQLVDSGGGLVQAGGSLRLSCAASGFTLDYYAMGWYRQAPGKESELVAAISWSGGRTYYADSVKGRFTISRDNAKNTVYLQMNSLKPEDTAVYYCNASPYGRKYGILADGDYWGQGTQVTVSS | high polyreactivity |

| Sequence | polyreactivity (PSR sort gate) |
| --- | --- |
| QVQLVESGGGLVQAGGSLRLSCAASGRIFVANAMGWYRQAPGKERELVAAISRRGGRTYYADSVKGRFTISRDNAKNTVYLQMNSLKPEDTAVYYCARVPTRAEDVAGWTGMDYWGQGTQVTVSS | high polyreactivity |
| QVQLVESGAGLVQARGSLRLSCAPSGRNFTYYAMGWYRQAPGTETELVAAISWSGGRTYYADSVKGRFTISRDNAKNTVYLKMNSLKPEDTAVYYCAADYYAFKFGRFDYWGQGTQVTVSS | high polyreactivity |
| HVQLVESGGGLVQAGGSLRLSCAASGFIIADNAMGWDRQAPGKERELVAAISSSGGSTYYADSVKARFTISRDNAKNTVYLQMNSLKPVDTAVYYCAARTYHPRYVRPTFYYWGQGTQVTVSS | low polyreactivity |
| QVQLVESGGGLVQAGGSLRLSCAASGRTLFYYTMGWYRQAPGKVRELVAAITTGGRTYYADSVKGRFTISRDNAKNTVYLQMNSLNPEDTAVYYCAAHTYYYPVGFNYWGPGTQVTVSS | low polyreactivity |
| QVQLVESGGGLVQAGGSLRLSCAASGFTFVYYTMGWYRPAPRKVRELVAAISSSGGRTSYADSVKGLFTISRDNAKNTVYLQMNSLKPEDTAVYYCAARAYPTWRTYYYWGQGTQVTVSS | high polyreactivity |
| QVQLVESGGGLVQAGGSLRLSCAASGFTFRRYAMGWYRQAPGKERELVAAISIRGGRTYYADSVKGRFTISRDNAKNTVYLQMNSLKPEDTAVYYCAAEVGFWGYGGYYYWGQGTQVTVSS | high polyreactivity |
| QVQLVESGGGLVQAGGSLRLSCAASGITFDYYAMGWYRQAPGKERELVAAISWGGGSTYYADSVKGRFTISRDNAKNTVYLQMNSLKQEDTAVYYCAAVIVYSPSSYVRPGDYWGQGTQVTVSS | low polyreactivity |
| QVQLVESGGGLVQAGGSLRLSCAASGRTFYVYAMGWYRQAPGKERELVAAITYTGGDTYYADSVKGRFTISRDNAKNTVYLQMNSLKPEDTAVYYCAADFGPYYRFDYWGQGTQVTVSS | low polyreactivity |
| QVQLVESGGGLVQAGGSLRLSCAASGYIFGVYAMGWYRQAPGKERELVAAISYGVGSTSYADSVKGRFTISRDNAKNTVYLQMNSLKPEDTAVYYCAADVFFYVYEAYLLYYWGQGTQVTVSS | low polyreactivity |
| QVQLVESGGGLVQAGGSLRLSCAASGSTVSSNAMGWFRLAPGQERELVAAIDRGGSTYYADSVKGRFTISRDNAKNTVYLQMNSRKPEDTAVYYCNADYYHLNSGMYYWGQGTQVTVSS | low polyreactivity |
| QVQLVESGGGLVQAGGSLRLSCAASGLIFDTNAMGWYRQAPGKERELVAAISLDGGSTYYADSVKGRFTISRDNAKNTVYLQMNSLKPEDTAVYYCNADYYANSITYDSWGQGTQVTVSS | low polyreactivity |
| QVQLVESGGGLVQAGGSLRLSCAASGFIFSSYAMGWYRQATGKERELVATISWSGGSTYYADSVKGRFTISRDNAKNTVYLQMNSLKPEDTAVYYCAAGYQRYLQRPEFYYWGQGTQVTVSS | high polyreactivity |
| QVQLVESGGGLVQAGGSLRLSCAASGSIFIQNGMGWYRQAPGKERELVASSASGGSTNYADSVKGRYTISRDNAKNTVYVQMNSLKPEDTAVYYCAARVWYSSDGSTYPYTRYDYWGQGTQVTVSS | high polyreactivity |
| QVQLVESGGGLFQAGGSLRISCAASGSTFYHNFMGWYRQAPGKERELVARITSTDSTYYEDSVKGRFTISGDNAKNTVYLQMNSLKPEYTAVSYCAASWWSPYDYWGQATQVTVSS | low polyreactivity |
| QVQLVESGGGLVQAGGSLRLSCAASGLIFRRYAMGWYRQAPGKERELVAAITRNGGSTYYADSVKGRFTISRDNAKNTVYLQMNSLKPEDTAVYYCAADRYRRRGGLDYWGQGTQVTVSS | high polyreactivity |
